Experimental findings from patent publication US20250333749A1, “INDUCIBLE PROMOTER, VECTOR AND HOST CELL BASED THEREON” (JOINT STOCK COMPANY «BIOCAD», priority 2021, published 2025) are described below.

In assay [1] the test system is HEK293_STAT3-STAT5-AP1_FLuc_AXL cells (AXL receptor). Briefly: GAS6-dependent AXL-mediated activation of reporter cell line HEK293_STAT3-STAT5-AP1_FLuc_AXL. It counts as cell-based. The settings on record: GAS6 2 μg/ml. As for the experimental part: (§1) To generate the reporter cell line HEK293_STAT3-STAT5-AP1_FLuc_AXL, we used three clones of the universal reporter cell line HEK293_STAT3-STAT5-AP1_FLuc: cl. D1, cl. B3 and cl. C4 #2; on the basis of them, we produced, respectively, 3 pools of cells with an embedded constitutionally expressed AXL receptor gene. AXL-mediated activation of these pools was tested. The test was performed in a 96-well culture plate designed for luminescence assays. […] The final volume of the cell suspension in a well was 100 μl, all components of the suspension were prepared in DMEM medium free of fetal bovine serum. After adding all the components, the plate was incubated for 16 hours at 37° C., 5% CO2, and then, using a luminescence assay kit, we measured the luminescence intensity in the wells. The measurement was carried out using a plate reader. The activation level was calculated as the ratio of luminescence level for a given pool in the presence of GAS6 to luminescence level in the absence of GAS6.
B3 and cl. […] D1. […]
The test was performed similarly to the procedure described in Example 7, we used the cells of the reporter line HEK293_STAT3-STAT5-AP1_FLuc_AXL (cl.13) and GAS6 at a concentration of 2 μg/ml (FIG. 11) for activation; following adding all the components, the plate was incubated for the time shown in the graph, the luminescence intensity in the wells was then determined. […]

In assay [2] the test system is HEK293_AXL_STAT3-STAT5-AP1 cells (AXL overexpresser). Nature of the assay: GAS6 activation of reporter cell line HEK293_AXL_STAT3-STAT5-AP1 as a function of cell count. It counts as cell-based. The settings on record: GAS6 2 μg/ml; 96-well plate; FIG. 17. As for the experimental part: as §1
To create the reporter cell line HEK293_AXL_STAT3-STAT5-AP1_FLuc, we used the cell line HEK293_AXL, an AXL overexpresser, on the basis of which we produced a pool of cells comprising a gene encoding firefly luciferase under the control of STAT3-STAT5-AP1 promoter. […] The test was performed in a similar fashion to the procedure described in Example 7, at a concentration of GAS6 of 2 μg/ml. […]

B1: GAS6: the AXL ligand GAS6; activator of AXL-dependent cell signaling (protein)
chain: AFQVFEEAKQGHLERECVEELCSREEAREVFENDPETDYFYPRYLDCINKYGSPYTKNSGFATCVQNLPDQCTPNPCDRKGTQACQDLMGNFFCLCKAGWGGRLCDKDVNECSQENGGCLQICHNKPGSFHCSCHSGFELSSDGRTCQDIDECADSEACGEARCKNLPGSYSCLCDEGFAYSSQEKACRDVDECLQGRCEQVCVNSPGSYTCHCDGRGGLKLSQDMDTCEDILPCVPFSVAKSVKSLYLGRMFSGTPVIRLRFKRLQPTRLVAEFDFRTFDPEGILLFAGGHQDSTWIVLALRAGRLELQLRYNGVGRVTSSGPVINHGMWQTISVEELARNLVIKVNRDAVMKIAVAGDLFQPERGLYHLNLTVGGIPFHEKDLVQPINPRLDGCMRSWNWLNGEDTTIQETVKVNTRMQCFSVTERGSFYPGSGFAFYSLDYMRTPLDVGTESTWEVEVVAHIRPAADTGVLFALWAPDLRAVPLSVALVDYHSTKKLKKQLVVLAVEHTALALMEIKVCDGQEHVVTVSLRDGEATLEVDGTRGQSEVSAAQLQERLAVLERHLRSPVLTFAGGLPDVPVTSAPVTAFYRGCMTLEVNRRLLDLDEAAYKHSDITAHSCPPVEPAAA
Turning to B1, the “Level of GAS6-dependent activation (activation relative to non-activated cells)” value in assay [1] (well H11 = initial pool (based on cl. D1)) turned out to be 3.61. For the same molecule, in assay [1] (cl.13, FIG. 11), the “incubation time with the highest level of activation” value stood at 24 h. Also, the “cell count per well with the highest level of activation” value in assay [2] was 25,000-50,000 cells.
